# Experimental data: the supplement of paper PMC9112550, “Optimization of the antimicrobial peptide Bac7 by deep mutational scanning” (BMC Biology, 2022)
# System: Escherichia coli TOP10
# Assay: shrunken log2 fold change of peptide-encoding DNA abundance (4.5 h post-induction vs induction); higher = less antimicrobial activity (less host growth inhibition)
# Conditions: time post-induction: 4.5 h; library: site-saturation at positions 5, 18, 19, 20
# 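Further: peptides expressed intracellularly from a pBAD plasmid library in pooled LB shake-flask culture, induced with 0.3% L-arabinose, DNA abundance read by NGS, three biological replicates, DESeq2 with apeglm shrinkage.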
row,Sequence,shrunken log2 fold change
1,RRIRRRPPRLPRPRPRPEGGPRP,0.103
2,RRIRRRPPRLPRPRPRPEHGPRP,0.0177
3,RRIRRRPPRLPRPRPRPEHMPRP,0.14
4,RRIRRRPPRLPRPRPRPEHSPRP,0.143
5,RRIRRRPPRLPRPRPRPEHVPRP,0.232
6,RRIRRRPPRLPRPRPRPEKFPRP,0.171
7,RRIRRRPPRLPRPRPRPELHPRP,0.793
8,RRIRRRPPRLPRPRPRPELMPRP,0.0537
9,RRIRRRPPRLPRPRPRPELQPRP,0.212
10,RRIRRRPPRLPRPRPRPEMEPRP,0.0355
11,RRIRRRPPRLPRPRPRPENNPRP,0.0497
12,RRIRRRPPRLPRPRPRPEQMPRP,0.19
13,RRIRRRPPRLPRPRPRPERAPRP,0.79
14,RRIRRRPPRLPRPRPRPESHPRP,0.589
15,RRIRRRPPRLPRPRPRPESKPRP,0.265
16,RRIRRRPPRLPRPRPRPESMPRP,0.358
17,RRIRRRPPRLPRPRPRPESNPRP,0.219
18,RRIRRRPPRLPRPRPRPESVPRP,0.075
19,RRIRRRPPRLPRPRPRPESWPRP,1.12
20,RRIRRRPPRLPRPRPRPFAEPRP,0.61

row,Sequence,shrunken log2 fold change
1,RRIRRRPPRLPRPRPRPFAKPRP,0.219
2,RRIRRRPPRLPRPRPRPFAWPRP,0.189
3,RRIRRRPPRLPRPRPRPFCCPRP,0.343
4,RRIRRRPPRLPRPRPRPFCPPRP,-0.106
5,RRIRRRPPRLPRPRPRPFDDPRP,-0.236
6,RRIRRRPPRLPRPRPRPFDNPRP,-0.241
7,RRIRRRPPRLPRPRPRPFDPPRP,0.504
8,RRIRRRPPRLPRPRPRPFDTPRP,-0.154
9,RRIRRRPPRLPRPRPRPFHDPRP,-0.307
10,RRIRRRPPRLPRPRPRPFHTPRP,-0.0624
11,RRIRRRPPRLPRPRPRPFIDPRP,-0.162
12,RRIRRRPPRLPRPRPRPFLIPRP,1.61
13,RRIRRRPPRLPRPRPRPFLKPRP,-0.0464
14,RRIRRRPPRLPRPRPRPFLVPRP,-0.566
15,RRIRRRPPRLPRPRPRPFLYPRP,0.0538
16,RRIRRRPPRLPRPRPRPFMDPRP,-0.148
17,RRIRRRPPRLPRPRPRPFMGPRP,-0.366
18,RRIRRRPPRLPRPRPRPFMMPRP,-0.173
19,RRIRRRPPRLPRPRPRPFMVPRP,-0.242
20,RRIRRRPPRLPRPRPRPFNGPRP,0.0131

row,Sequence,shrunken log2 fold change
1,RRIRRRPPRLPRPRPRPFPAPRP,0.731
2,RRIRRRPPRLPRPRPRPFRQPRP,-0.0196
3,RRIRRRPPRLPRPRPRPFRRPRP,0.322
4,RRIRRRPPRLPRPRPRPFSIPRP,-0.254
5,RRIRRRPPRLPRPRPRPFSWPRP,-0.469
6,RRIRRRPPRLPRPRPRPGCCPRP,0.589
7,RRIRRRPPRLPRPRPRPGDAPRP,0.782
8,RRIRRRPPRLPRPRPRPGDEPRP,-0.0622
9,RRIRRRPPRLPRPRPRPGDKPRP,-0.292
10,RRIRRRPPRLPRPRPRPGDNPRP,0.169
11,RRIRRRPPRLPRPRPRPGDVPRP,0.249
12,RRIRRRPPRLPRPRPRPGEKPRP,0.0687
13,RRIRRRPPRLPRPRPRPGEWPRP,0.701
14,RRIRRRPPRLPRPRPRPGFYPRP,-0.107
15,RRIRRRPPRLPRPRPRPGGNPRP,0.475
16,RRIRRRPPRLPRPRPRPGIEPRP,-0.0777
17,RRIRRRPPRLPRPRPRPGIQPRP,0.0906
18,RRIRRRPPRLPRPRPRPGKAPRP,0.112
19,RRIRRRPPRLPRPRPRPGMVPRP,0.308
20,RRIRRRPPRLPRPRPRPGNNPRP,-0.365
